According to patent US20190062705A1 (WAYNE STATE UNIVERSITY, published 2019):
Each block holds one binder with its values, some of them ahead of it.

Legend:
[1] = target: T1, Bcl10, endogenous in the human Ramos B cell line (human, UniProt O95999 1-233); assay: co-IP in Ramos B cells unstimulated or stimulated with TNF for 24 h
T1 sequence (looked up): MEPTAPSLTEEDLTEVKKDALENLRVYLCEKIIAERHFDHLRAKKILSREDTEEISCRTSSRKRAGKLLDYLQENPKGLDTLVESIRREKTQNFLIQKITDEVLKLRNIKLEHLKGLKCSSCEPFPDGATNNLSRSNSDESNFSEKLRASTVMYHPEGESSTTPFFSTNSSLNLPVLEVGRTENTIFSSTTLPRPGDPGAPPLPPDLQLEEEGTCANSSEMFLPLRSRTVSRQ

[2] = target: T2, autoimmune regulator (AIRE), mouse, endogenous in B cells (mouse, UniProt Q9Z0E3 1-552, limits assumed); assay: co-IP, mouse splenic B cell lysates
T2 construct: Endogenous protein in mouse splenic B cells and CH12 cells
T2 sequence: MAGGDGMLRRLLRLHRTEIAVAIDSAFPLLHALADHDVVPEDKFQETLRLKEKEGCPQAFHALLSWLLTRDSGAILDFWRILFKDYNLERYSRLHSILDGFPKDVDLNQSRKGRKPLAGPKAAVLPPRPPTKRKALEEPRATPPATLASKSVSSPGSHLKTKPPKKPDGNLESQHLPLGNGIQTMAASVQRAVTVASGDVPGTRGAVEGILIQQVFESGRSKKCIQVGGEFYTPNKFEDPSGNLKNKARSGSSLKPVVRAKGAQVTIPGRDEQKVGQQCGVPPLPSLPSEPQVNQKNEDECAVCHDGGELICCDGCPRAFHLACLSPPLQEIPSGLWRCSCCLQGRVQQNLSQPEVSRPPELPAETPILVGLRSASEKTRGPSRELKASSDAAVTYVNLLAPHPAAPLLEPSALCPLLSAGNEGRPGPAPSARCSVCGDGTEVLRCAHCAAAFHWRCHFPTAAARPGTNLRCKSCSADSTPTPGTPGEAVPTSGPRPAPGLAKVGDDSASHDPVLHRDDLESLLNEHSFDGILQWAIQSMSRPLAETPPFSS

binding result [1]: no binding
B1: activation-induced cytidine deaminase (AID), human, endogenous in B cells (enzyme)
chain: MDSLLMNRRKFLYQFKNVRWAKGRRETYLCYVVKRRDSATSFSLDFGYLRNKNGCHVELLFLRYISDWDLDPGRCYRVTWFTSWSPCYDCARHVADFLRGNPNLSLRIFTARLYFCEDRKAEPEGLRRLHRAGVQIAIMTFKDYFYCWNTFVENHERTFKAWEGLHENSVRLPRQLRRILLPLYEVDDLRDAFRTWGR
notes: Endogenous protein in lysates of human tonsillar B cells and Ramos B cells

binding result [2]: binds
B2: activation-induced cytidine deaminase (AID), mouse, endogenous in B cells (enzyme, UniProt Q9WVE0 1-198, looked up)
chain: MDSLLMKQKKFLYHFKNVRWAKGRHETYLCYVVKRRDSATSCSLDFGHLRNKSGCHVELLFLRYISDWDLDPGRCYRVTWFTSWSPCYDCARHVAEFLRWNPNLSLRIFTARLYFCEDRKAEPEGLRRLHRAGVQIGIMTFKDYFYCWNTFVENRERTFKAWEGLHENSVRLTRQLRRILLPLYEVDDLRDAFRMLGF
notes: Endogenous protein in mouse splenic B cells and CH12 cells
